The numbers were not newly measured in PMC4776139, “Extended string-like binding of the phosphorylated HP1α N-terminal tail to the lysine 9-methylated histone H3 tail” (Scientific Reports, 2016), which cites them from elsewhere.

The series concerns H3K9me. As to conditions: effect of N-terminal tail phosphorylation. The source says:
In mice there are three HP1 isoforms, HP1α, HP1β and HP1γ with highly conserved CDs that are thought to share a similar structural feature to interact with H3K9me. By contrast, the CDs of these isoforms are connected to a less-conserved N-terminal tail, which is hypothesized to contribute to their isoform-specific function. In HP1α, in particular, there are four successive serine residues in the N-terminal tail that are constitutively phosphorylated in vivo[13]. […] Howeve ...

B1: HP1α: mouse heterochromatin protein 1 isoform; chromodomain with N-terminal tail (protein, UniProt Q61686 1-191, looked up)
Chromobox protein homolog 5: MGKKTKRTADSSSSEDEEEYVVEKVLDRRMVKGQVEYLLKWKGFSEEHNTWEPEKNLDCPELISEFMKKYKKMKEGENNKPREKSEGNKRKSSFSNSADDIKSKKKREQSNDIARGFERGLEPEKIIGATDSCGDLMFLMKWKDTDEADLVLAKEANVKCPQIVIAFYEERLTWHAYPEDAENKEKESAKS
Take B1: the “affinity for H3K9me, in words” value is “its affinity becomes much stronger when the N-terminal tail is phosphorylated”.
